Measurements taken from US20130040360.

System: full-length rat proMMP9(1-708) (SEQ ID NO:11)
Sequence (chain, as listed by the source): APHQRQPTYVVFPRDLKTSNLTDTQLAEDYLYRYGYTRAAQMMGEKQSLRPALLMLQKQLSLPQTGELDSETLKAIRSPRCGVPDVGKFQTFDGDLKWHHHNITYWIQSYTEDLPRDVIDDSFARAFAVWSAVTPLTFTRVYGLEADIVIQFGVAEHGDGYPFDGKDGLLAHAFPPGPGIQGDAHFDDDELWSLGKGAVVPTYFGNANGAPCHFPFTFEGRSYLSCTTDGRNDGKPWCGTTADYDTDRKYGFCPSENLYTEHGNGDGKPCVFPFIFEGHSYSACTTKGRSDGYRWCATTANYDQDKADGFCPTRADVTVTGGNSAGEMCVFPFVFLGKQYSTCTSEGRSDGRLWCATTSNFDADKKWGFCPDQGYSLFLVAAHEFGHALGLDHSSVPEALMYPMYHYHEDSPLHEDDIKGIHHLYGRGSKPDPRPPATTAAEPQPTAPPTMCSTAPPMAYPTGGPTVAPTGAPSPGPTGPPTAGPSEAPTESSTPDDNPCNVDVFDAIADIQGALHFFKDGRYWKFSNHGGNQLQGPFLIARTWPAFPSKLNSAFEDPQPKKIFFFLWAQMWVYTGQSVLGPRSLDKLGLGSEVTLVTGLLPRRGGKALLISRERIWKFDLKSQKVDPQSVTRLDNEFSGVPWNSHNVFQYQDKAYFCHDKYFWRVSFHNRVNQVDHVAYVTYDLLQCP

human catalytic MMP3, MMP3(100-265) (SEQ ID NO:8), sequence (chain, as listed by the source): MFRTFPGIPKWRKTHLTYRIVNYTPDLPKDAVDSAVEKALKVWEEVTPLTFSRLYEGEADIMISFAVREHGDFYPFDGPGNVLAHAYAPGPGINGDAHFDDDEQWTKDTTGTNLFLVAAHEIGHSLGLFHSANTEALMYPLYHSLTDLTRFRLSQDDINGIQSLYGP

Substance: human catalytic MMP3, MMP3(100-265) (SEQ ID NO:8)
- proteolytic conversion of proMMP9 to catalytic MMP9: full-length rat proMMP9(1-708) (SEQ ID NO:11) converted to catalytic rat MMP9 by catalytic MMP3
